# T1: human C2 T317A (human, UniProt P06681 21-752)
# T1 sequence: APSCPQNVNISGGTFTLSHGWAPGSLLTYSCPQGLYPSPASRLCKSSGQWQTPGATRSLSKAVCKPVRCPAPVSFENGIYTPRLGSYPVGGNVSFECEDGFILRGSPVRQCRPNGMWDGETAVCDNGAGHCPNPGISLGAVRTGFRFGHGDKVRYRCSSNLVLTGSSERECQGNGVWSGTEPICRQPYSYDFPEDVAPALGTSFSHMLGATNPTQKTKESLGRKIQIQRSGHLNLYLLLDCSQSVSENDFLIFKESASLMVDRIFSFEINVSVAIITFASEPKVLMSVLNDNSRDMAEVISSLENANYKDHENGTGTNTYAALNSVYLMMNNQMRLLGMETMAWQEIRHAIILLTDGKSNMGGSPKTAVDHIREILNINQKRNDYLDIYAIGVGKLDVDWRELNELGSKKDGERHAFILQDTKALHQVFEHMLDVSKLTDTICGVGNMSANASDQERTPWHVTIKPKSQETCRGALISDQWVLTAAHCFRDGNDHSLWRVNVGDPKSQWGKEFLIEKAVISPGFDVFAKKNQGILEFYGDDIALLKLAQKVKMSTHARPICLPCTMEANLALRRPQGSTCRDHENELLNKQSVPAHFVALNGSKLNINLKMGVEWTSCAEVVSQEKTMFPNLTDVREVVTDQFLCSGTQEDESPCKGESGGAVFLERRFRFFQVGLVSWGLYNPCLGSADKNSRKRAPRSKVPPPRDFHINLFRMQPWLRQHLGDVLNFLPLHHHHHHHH
# T2: human C2 K711A (human, UniProt P06681 21-752)
# T2 sequence: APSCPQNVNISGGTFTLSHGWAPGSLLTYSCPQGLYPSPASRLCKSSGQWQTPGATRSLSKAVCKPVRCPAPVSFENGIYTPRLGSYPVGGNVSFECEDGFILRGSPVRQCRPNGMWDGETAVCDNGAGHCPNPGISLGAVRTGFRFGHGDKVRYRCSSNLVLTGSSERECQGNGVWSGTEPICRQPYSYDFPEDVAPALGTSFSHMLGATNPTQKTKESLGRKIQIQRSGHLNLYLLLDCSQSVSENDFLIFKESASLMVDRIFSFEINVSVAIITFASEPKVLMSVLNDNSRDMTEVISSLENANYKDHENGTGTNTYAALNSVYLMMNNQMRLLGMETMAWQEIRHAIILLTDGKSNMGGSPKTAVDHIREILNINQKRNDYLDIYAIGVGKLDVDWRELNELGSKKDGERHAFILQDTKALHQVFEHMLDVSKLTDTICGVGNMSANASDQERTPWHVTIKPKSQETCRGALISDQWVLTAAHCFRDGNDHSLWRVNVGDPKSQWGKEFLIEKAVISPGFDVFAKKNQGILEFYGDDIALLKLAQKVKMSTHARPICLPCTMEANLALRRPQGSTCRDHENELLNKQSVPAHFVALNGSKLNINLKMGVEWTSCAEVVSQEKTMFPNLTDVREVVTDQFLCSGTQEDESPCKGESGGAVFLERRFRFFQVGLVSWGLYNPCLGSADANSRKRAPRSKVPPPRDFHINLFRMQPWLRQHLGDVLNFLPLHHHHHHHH
# T3: human C2 D269A (human, UniProt P06681 21-752)
# T3 sequence: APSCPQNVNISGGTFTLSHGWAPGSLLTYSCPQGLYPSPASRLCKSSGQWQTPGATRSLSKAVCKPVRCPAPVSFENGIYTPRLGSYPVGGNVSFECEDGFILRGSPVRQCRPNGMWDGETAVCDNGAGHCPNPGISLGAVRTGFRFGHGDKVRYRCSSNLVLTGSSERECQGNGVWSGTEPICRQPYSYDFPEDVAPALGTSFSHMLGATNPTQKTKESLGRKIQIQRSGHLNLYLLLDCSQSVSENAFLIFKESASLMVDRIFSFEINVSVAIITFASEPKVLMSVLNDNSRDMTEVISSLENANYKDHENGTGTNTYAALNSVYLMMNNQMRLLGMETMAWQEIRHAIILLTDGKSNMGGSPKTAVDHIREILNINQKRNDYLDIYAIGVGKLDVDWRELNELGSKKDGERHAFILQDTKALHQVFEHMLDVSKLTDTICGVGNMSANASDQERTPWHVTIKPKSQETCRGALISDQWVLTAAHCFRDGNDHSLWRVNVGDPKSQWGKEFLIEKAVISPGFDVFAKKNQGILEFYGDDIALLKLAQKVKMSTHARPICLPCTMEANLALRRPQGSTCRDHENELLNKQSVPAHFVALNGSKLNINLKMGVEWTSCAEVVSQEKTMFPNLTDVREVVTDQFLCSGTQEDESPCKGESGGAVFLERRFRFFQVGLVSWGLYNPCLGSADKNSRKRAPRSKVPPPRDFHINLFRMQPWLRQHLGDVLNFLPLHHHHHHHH
# T4: human C2 K487A (human, UniProt P06681 21-752)
# T4 sequence: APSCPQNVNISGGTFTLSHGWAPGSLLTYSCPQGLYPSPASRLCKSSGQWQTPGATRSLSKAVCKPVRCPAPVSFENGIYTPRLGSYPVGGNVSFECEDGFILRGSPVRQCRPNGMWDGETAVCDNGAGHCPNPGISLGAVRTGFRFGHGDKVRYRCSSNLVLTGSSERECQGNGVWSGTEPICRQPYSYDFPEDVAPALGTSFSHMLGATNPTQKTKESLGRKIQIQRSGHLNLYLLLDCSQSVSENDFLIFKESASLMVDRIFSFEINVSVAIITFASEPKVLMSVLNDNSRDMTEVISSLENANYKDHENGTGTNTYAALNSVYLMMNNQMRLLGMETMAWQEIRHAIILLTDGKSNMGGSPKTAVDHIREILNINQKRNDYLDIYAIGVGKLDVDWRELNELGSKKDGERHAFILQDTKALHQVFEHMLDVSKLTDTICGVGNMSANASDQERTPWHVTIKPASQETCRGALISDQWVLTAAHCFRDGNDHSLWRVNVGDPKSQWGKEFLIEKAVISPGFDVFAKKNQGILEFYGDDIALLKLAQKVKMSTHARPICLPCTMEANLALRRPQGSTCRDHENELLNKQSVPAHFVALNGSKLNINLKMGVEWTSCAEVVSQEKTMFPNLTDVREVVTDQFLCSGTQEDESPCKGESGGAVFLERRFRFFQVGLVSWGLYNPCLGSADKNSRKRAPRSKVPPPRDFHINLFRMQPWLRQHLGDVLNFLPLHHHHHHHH
# B1: RF16-226 (antibody, human IgG4 S228P, lambda)
# heavy: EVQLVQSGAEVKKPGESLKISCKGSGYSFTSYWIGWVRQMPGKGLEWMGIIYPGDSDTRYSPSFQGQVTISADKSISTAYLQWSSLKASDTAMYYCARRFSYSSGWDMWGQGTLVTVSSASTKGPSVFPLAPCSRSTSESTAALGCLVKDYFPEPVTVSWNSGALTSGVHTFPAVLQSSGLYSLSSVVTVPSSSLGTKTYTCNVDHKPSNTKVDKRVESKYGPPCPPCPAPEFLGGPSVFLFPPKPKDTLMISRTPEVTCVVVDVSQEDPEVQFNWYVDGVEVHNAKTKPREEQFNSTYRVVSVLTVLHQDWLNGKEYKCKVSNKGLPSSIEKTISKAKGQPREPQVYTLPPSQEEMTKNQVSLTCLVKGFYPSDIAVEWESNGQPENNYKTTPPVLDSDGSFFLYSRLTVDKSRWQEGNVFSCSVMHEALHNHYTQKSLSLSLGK
# light: SYELTQPPSVSVSPGQTARITCSGDALTSKYVAWYQQKSGLAPLLVIYEDTRRPSGIPAKFSGSSSGSVATLTISGAHGDDEADYYCYSTDASGHQRVFGGGTKLTVLSQPKAAPSVTLFPPSSEELQANKATLVCLISDFYPGAVTVAWKADGSPVKAGVETTKPSKQSNNKYAASSYLSLTPEQWKSHRSYSCQVTHEGSTVEKTVAPTECS
# notes: pH-dependent anti-C2 antibody from a phage display library; also called WT
# Columns and labels:
# Test in all cases: SPR, KD relative to WT C2;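 further: biacore SPR at 37 °C, anti-C2 mAbs captured via immobilised goat anti-human IgG, C2 alanine or serine surface mutants as analytes, 1:1 model fitted, double-referenced sensograms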
# human C2 T317A = biological target: T1, human C2 T317A
# human C2 K711A = biological target: T2, human C2 K711A
# human C2 D269A = biological target: T3, human C2 D269A
# human C2 K487A = biological target: T4, human C2 K487A
binder,measurement,setting,value
B1,Fold diff,human C2 T317A,1 fold
same,Fold diff,human C2 K711A,5 fold
same,Fold diff,human C2 D269A,1 fold
same,Fold diff,human C2 K487A,9 fold

# From patent US20220332804A1 (CSL INNOVATION, published 2022)
